For test [1], the target named is T1, human CD33 (human, UniProt P20138 18-364). In words: cell-based or functional assay.
Test [2] deals with T2, human CD3 (human, UniProt P07766 23-207; P09693 23-182; P04234 22-171; P20963 22-164). In words: cell-based or functional assay.
Test [3] deals with T1, human CD33. As to the kind of experiment: flow cytometry, HL-60 cells.
The target of test [4] is T2, human CD3. As to the kind of experiment: flow cytometry, human T-cells. Background: In flow cytometry, cells or beads pass a laser one at a time.
For test [5], the target named is T1, human CD33. In words: flow cytometry titration, KG-1 cells. The procedure, abridged: (§1)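 Cells titrated with CD33/CD3 2×2 T-cell engagers, detected via anti-His then FITC anti-mouse IgG on ice, with PI exclusion of dead cells. Background-subtracted mean fluorescence fit to one-site binding for KD; cross-reactivity ratio from KDs on CHO cells expressing recombinant cynomolgus or human CD33.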

Test [6] deals with T1, human CD33. In words: flow cytometry titration, HL-60 cells. The procedure, abridged:
as §1

Test [7] deals with T1, human CD33. As to the kind of experiment: flow cytometry titration, U-937 cells. The procedure, abridged: as §1
Test [8] has as its target T2, human CD3. In words: flow cytometry titration, T cells (human CD3+).
Another test addresses T3, cynomolgus CD33 (cynomolgus, UniProt A0A7N9ICR5 17-359).
T3 construct: whole, on cells; also called cynoCD33; cyno CD33
In words: ratio of KD by flow cytometry on CHO cells expressing cynomolgus CD33 vs human CD33. The protocol: Cells were incubated with 100 μL of serial dilutions of CD33/CD3 2×2 T-cell engagers. After washing three times with FACS buffer the cells were incubated with 0.1 mL of 10 μg/mL mouse monoclonal anti-His antibody in the same buffer for 45 min on ice. After a second washing cycle, the cells were incubated with 0.1 mL of 15 μg/mL FITC-conjugated goat anti-mouse IgG antibodies under the same conditions as before. As a control, cells were incubated with the anti-His IgG followed by the FITC-conjugated goat anti-mouse IgG antibodies without anti-CD33 2×2 T-cell engagers. The cells were then washed again and resuspended in 0.2 mL of FACS buffer containing 2 μg/mL propidium iodide (PI) in order to exclude dead cells. The fluorescence of 1×10⁴ living cells was measured using a Beckman-Coulter FC500 MPL flow cytometer using the MXP software (Beckman-Coulter, Krefeld, Germany) or a Millipore Guava EasyCyte flow cytometer using the Incyte software (Merck Millipore, Schwalbach, Germany). Mean fluorescence intensities of the cell samples were calculated using CXP software (Beckman-Coulter, Krefeld, Germany) or Incyte software (Merck Millipore, Schwalbach, Germany). After subtracting the fluorescence intensity values of the cells stained with the secondary and tertiary reagents alone the values were used for calculation of the KD values with the equation for one-site binding (hyperbola) of the GraphPad Prism (version 6.00 for Windows, GraphPad Software, La Jolla Calif. USA).
CD3 binding affinity and crossreactivity were evaluated in titration and flow cytometric experiments on CD3⁺ Jurkat cells (provided by Dr. Moldenhauer, DKFZ Heidelberg; human acute T-cell leukemia) and the cynomolgus CD3⁺ HSC-F cell line (JCRB, cat.:JCRB 1164). […] The KD ratio of crossreactivity was calculated using the KD values determined on the CHO cell lines expressing either recombinant human or recombinant cynomolgus antigens.

The term Kd denotes the constant that tells how readily two partners part at equilibrium. A higher Kd goes with a looser complex.

T2 sequence (P07766 23-207, chain 1 of 4): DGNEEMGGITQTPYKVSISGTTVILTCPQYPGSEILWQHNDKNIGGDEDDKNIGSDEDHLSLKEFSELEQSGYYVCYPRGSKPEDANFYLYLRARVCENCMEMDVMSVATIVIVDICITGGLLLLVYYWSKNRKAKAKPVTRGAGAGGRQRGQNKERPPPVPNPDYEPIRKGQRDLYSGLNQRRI
T2 sequence (P09693 23-182, chain 2 of 4): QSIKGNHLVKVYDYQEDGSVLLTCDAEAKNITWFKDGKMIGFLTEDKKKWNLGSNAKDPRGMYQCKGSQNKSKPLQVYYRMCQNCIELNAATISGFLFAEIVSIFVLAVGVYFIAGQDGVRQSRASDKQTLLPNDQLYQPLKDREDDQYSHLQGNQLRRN
T2 sequence (P04234 22-171, chain 3 of 4): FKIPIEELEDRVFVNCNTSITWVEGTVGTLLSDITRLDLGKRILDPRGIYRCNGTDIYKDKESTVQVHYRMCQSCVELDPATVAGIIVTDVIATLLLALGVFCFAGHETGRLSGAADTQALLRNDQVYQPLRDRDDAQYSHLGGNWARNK
T2 sequence (P20963 22-164, chain 4 of 4): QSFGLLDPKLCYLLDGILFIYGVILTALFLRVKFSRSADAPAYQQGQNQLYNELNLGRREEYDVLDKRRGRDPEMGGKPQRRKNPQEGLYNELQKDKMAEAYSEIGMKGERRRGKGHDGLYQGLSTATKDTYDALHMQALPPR
T1 sequence (P20138 18-364): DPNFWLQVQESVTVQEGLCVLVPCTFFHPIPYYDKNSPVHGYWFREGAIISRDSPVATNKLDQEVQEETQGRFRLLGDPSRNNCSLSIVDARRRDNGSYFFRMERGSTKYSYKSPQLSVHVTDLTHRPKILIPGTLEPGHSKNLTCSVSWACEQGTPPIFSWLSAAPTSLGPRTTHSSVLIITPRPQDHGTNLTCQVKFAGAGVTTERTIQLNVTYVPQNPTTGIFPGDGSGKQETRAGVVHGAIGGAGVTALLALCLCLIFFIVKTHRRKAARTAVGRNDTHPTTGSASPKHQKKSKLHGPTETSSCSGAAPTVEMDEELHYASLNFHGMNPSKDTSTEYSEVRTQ

B1: CD33/CD3 2×2 T-cell engager 17 (bispecific antibody)
chain: DIQMTQSPSSLSASVGDRVTITCRSSTGAVTTSNYANWVQQKPGKAPKALIGGTNKRAPGVPSRFSGSLIGDKATLTISSLQPEDFATYYCALWYSNLWVFGQGTKVEIKGGSGGSQVQLVQSGAEVKKPGESLKISCKGSGYSFTSYWIGWVRQMPGKGLEWMGIIYPGDSDTRYSPSFQGQVTISADKSISTAYLQWSSLKASDTAMYYCARHKRGSDAFDIWGQGTTVTVSSGGSGQSVLTQPPSVSGAPGQRVTISCTGSSSNIGAGYDVHWYQQLPGTAPKLLIYGNSNRPSGVPDRFSGSKSGTSASLAITGLQAEDEADYYCQSYDSSLSDVVFGGGTKLTVLGGSGGSEVQLVESGGGLVQPGGSLRLSCAASGFTFSTYAMNWVRQAPGKGLEWVGRIRSKYNNYATYYADSVKDRFTISRDDSKNSLYLQMNSLKTEDTAVYYCARHGNFGNSYVSYFAYWGQGTLVTVSSAAAGSHHHHHH
notes: Non-covalent homodimer
For B1, in the test with human CD33 [1], the “EC50 on HL-60 (cytotoxicity)” value is 0.0184 nM. The “CD25 Induction EC50” value with human CD3 [2] stood at 0.03 nM. The “CD69 Induction EC50” value with human CD3 [2] was 0.114 nM. Besides, the “T cell Proliferation in PBMC EC50” value with human CD3 [2] was 0.03 nM. The Kd amounted to 5 nM in the test with human CD33 [3]; 3.3 nM with human CD3 [4]; 52.5 nM with human CD33 [5]; 5 nM with human CD33 [6]; 24.4 nM in the test with human CD33 [7]; 3.3 nM with human CD3 [8]. In addition, the “KD ratio cynoCD33/huCD33” value with cynomolgus CD33 turned out to be 1.9.

B2: CD33/CD3 2×2 T-cell engager 07 (bispecific antibody)
chain: DIQMTQSPSSLSASVGDRVTITCRSSTGAVTTSNYANWVQQKPGKAPKALIGGTNKRAPGVPSRFSGSLIGDKATLTISSLQPEDFATYYCALWYSNLWVFGQGTKVEIKGGSGGSQVQLQESGGGVVQPGRSLRLSCAASGFSFSNYGIHWVRQAPGKGLEWVALISYDGNKKFYADSVKGRFAISRDTSKNTVDLQMTSLRPEDTAVYYCAKDRLESAAFDYWGQGTLVTVSSGGSGGSSYELTQPPSVSVAPGQTAMITCGGNNIGSTTVHWYQQKPGQAPVLVVYDDNERPSGIPERFSGSNSGSTATLTINRVEAGDEADYYCQVWDSGSDHVVFGGGTKLTVLGGSGGSEVQLVESGGGLVQPGGSLRLSCAASGFTFSTYAMNWVRQAPGKGLEWVGRIRSKYNNYATYYADSVKDRFTISRDDSKNSLYLQMNSLKTEDTAVYYCARHGNFGNSYVSYFAYWGQGTLVTVSSAAAGSHHHHHH
notes: Non-covalent homodimer; also called 2×2 T-cell engager 7
With B2, in the test with human CD33 [1], the “EC50 on HL-60 (cytotoxicity)” value is 0.0178 nM. Besides, in the test with human CD3 [2], the “CD25 Induction EC50” value came to 0.134 nM. Besides, in the test with human CD3 [2], the “CD69 Induction EC50” value turned out to be 0.065 nM. Besides, the “T cell Proliferation in PBMC EC50” value with human CD3 [2] stood at 0.05 nM. Moreover, the Kd is 13.7 nM with human CD33 [3]; 49.7 nM in the test with human CD3 [4]; 47.9 nM with human CD33 [5]; 13.7 nM in the test with human CD33 [6]; 47.1 nM with human CD33 [7]; 49.7 nM in the test with human CD3 [8]. The “KD ratio cynoCD33/huCD33” value in the test with cynomolgus CD33 came to 45.8.

B3: CD33/CD3 2×2 T-cell engager 21 (bispecific antibody)
chain: DIQMTQSPSSLSASVGDRVTITCRSSTGAVTTSNYANWVQQKPGKAPKALIGGTNKRAPGVPSRFSGSLIGDKATLTISSLQPEDFATYYCALWYSNLWVFGQGTKVEIKGGSGGSQVQLVQSGAEVKKPGSSVKVSCKASGGTFSSYAISWVRQAPGQGLEWMGGIYPIFGSANYAQKFQGRVTITADESTSTAYMELSSLRSEDTAVYYCAREYYYDSSEWAFDIWGQGTLVTVSSGGSGQSVLTQPPSASGTPGQRVTISCSGSSSNIGSNIVNWYQQLPGTAPKLLIYSNNQRPSGVPDRFSGSKSGTSASLAISGLQSEDEADYYCAAWDDSLKGYVFGGGTKLTVLGGSGGSEVQLVESGGGLVQPGGSLRLSCAASGFTFSTYAMNWVRQAPGKGLEWVGRIRSKYNNYATYYADSVKDRFTISRDDSKNSLYLQMNSLKTEDTAVYYCARHGNFGNSYVSYFAYWGQGTLVTVSSAAAGSHHHHHH
notes: Non-covalent homodimer
On to B3, for which the “EC50 on HL-60 (cytotoxicity)” value with human CD33 [1] was 0.0076 nM. Also, the “CD69 Induction EC50” value in the test with human CD3 [2] was 0.225 nM. Also, in the test with human CD3 [2], the “T cell Proliferation in PBMC EC50” value was determined as 0.5 nM. Further, the Kd in the test with human CD33 [3] amounted to 9.7 nM; with human CD3 [4], 2.1 nM; with human CD33 [5], 25.1 nM; in the test with human CD33 [6], 9.7 nM; in the test with human CD33 [7], 80.2 nM; with human CD3 [8], 2.1 nM. Further, the “KD ratio cynoCD33/huCD33” value in the test with cynomolgus CD33 came out at 0.9.

B4: CD33/CD3 2×2 T-cell engager 20 (bispecific antibody)
chain: DIQMTQSPSSLSASVGDRVTITCRSSTGAVTTSNYANWVQQKPGKAPKGLIGGTNKRAPGVPSRFSGSLIGTDFTLTISSLQPEDFATYYCALWYSNLWVFGQGTKVEIKGGSGGSQVQLVQSGAEVKKPGASVKVSCKASGYTFTSYYMHWVRQAPGQGLEWMGIINPSGGSTSYAQKFQGRVTMTRDTSTSTVYMELSSLRSEDTAVYYCARDVVPAAIDYYGMDVWGQGTTVTVSSGGSGQSVLTQPPSASGTPGQRVTISCSGSSSNIGSNTVNWYQQLPGTAPKLLIYSDNQRPSGVPDRFSGSKSGSSASLAISGLQSDDEADYYCATWDDSLNGAVFGGGTKLTVLGGSGGSEVQLVESGGGLVQPGGSLRLSCAASGFTFSTYAMNWVRQAPGKGLEWVGRIRSKYNNYATYYADSVKDRFTISRDDSKNSLYLQMNSLKTEDTAVYYCARHGNFGNSYVSWFAYWGQGTLVTVSSAAAGSHHHHHH
notes: Non-covalent homodimer
In the case of B4, the “EC50 on HL-60 (cytotoxicity)” value with human CD33 [1] came out at 0.01 nM. Besides, in the test with human CD3 [2], the “CD25 Induction EC50” value was 0.098 nM. Further, the “CD69 Induction EC50” value with human CD3 [2] was found to be 0.075 nM. In addition, the “T cell Proliferation in PBMC EC50” value with human CD3 [2] came out at 0.038 nM. Further, the Kd with human CD33 [3] amounted to 4.1 nM; with human CD3 [4] it was 144 nM; with human CD33 [5], 7 nM; with human CD33 [6] it was 4.1 nM; with human CD33 [7], 7.2 nM; with human CD3 [8], 144 nM. In the test with cynomolgus CD33, the “KD ratio cynoCD33/huCD33” value was 33.8.

B5: CD33/CD3 2×2 T-cell engager 18 (bispecific antibody)
chain: EVQLVESGGGLVQPGGSLRLSCAASGFTFSTYAMNWVRQAPGKGLEWVGRIRSKYNNYATYYADSVKDRFTISRDDSKNSLYLQMNSLKTEDTAVYYCARHGNFGNSYVSYFAYWGQGTLVTVSSGGSGGSQSVLTQPPSVSGAPGQRVTISCTGSSSNIGAGYDVHWYQQLPGTAPKLLIYGNSNRPSGVPDRFSGSKSGTSASLAITGLQAEDEADYYCQSYDSSLSDVVFGGGTKLTVLGGSGQVQLVQSGAEVKKPGESLKISCKGSGYSFTSYWIGWVRQMPGKGLEWMGIIYPGDSDTRYSPSFQGQVTISADKSISTAYLQWSSLKASDTAMYYCARHKRGSDAFDIWGQGTTVTVSSGGSGGSDIQMTQSPSSLSASVGDRVTITCRSSTGAVTTSNYANWVQQKPGKAPKALIGGTNKRAPGVPSRFSGSLIGDKATLTISSLQPEDFATYYCALWYSNLWVFGQGTKVEIKAAAGSHHHHHH
notes: Non-covalent homodimer
For B5, in the test with human CD33 [1], the “EC50 on HL-60 (cytotoxicity)” value was 0.0063 nM. The Kd with human CD33 [5] amounted to 16.3 nM; with human CD33 [6], 3.4 nM; with human CD33 [7], 15.1 nM; with human CD3 [8], 1.9 nM. For the same molecule, the “KD ratio cynoCD33/huCD33” value in the test with cynomolgus CD33 came out at 3.1.

B6: CD33/CD3 2×2 T-cell engager 23 (bispecific antibody)
chain: DIQMTQSPSSLSASVGDRVTITCRSSTGAVTTSNYANWVQQKPGKAPKGLIGGTNKRAPGVPSRFSGSLIGTDFTLTISSLQPEDFATYYCALWYSNLWVFGQGTKVEIKGGSGGSQVQLVQSGAEVKKPGSSVKVSCKASGGTFSSYGISWVRQAPGQGLEWMGGIIPIFGSAHYAQKFQGRVTITADESTSTAYMELSSLRSEDTAVYYCAREYYYDSSEWAFDIWGQGTLVTVSSGGSGQSVLTQPPSASGTPGQRVTISCSGSSSNIGSNTVKWYQQLPGTAPKLLIYSNNQRSSGVPDRFSGSKSGSSASLAISGLQSEDEADYYCAAWDDSLNGYVFGGGTKLTVLGGSGGSEVQLVESGGGLVQPGGSLRLSCAASGFTFSTYAMNWVRQAPGKGLEWVGRIRSKYNNYATYYADSVKDRFTISRDDSKNSLYLQMNSLKTEDTAVYYCARHGNFGNSYVSWFAYWGQGTLVTVSS
notes: Non-covalent homodimer
As for B6, the “EC50 on HL-60 (cytotoxicity)” value with human CD33 [1] turned out to be 0.0028 nM. Also, in the test with human CD3 [2], the “CD25 Induction EC50” value was 0.041 nM. Moreover, the “CD69 Induction EC50” value in the test with human CD3 [2] was found to be 0.017 nM. Moreover, the “T cell Proliferation in PBMC EC50” value in the test with human CD3 [2] stood at 0.037 nM. Moreover, the Kd with human CD33 [3] was 0.4 nM; with human CD3 [4], 97.2 nM; with human CD33 [5], 1 nM; in the test with human CD33 [6], 0.4 nM; in the test with human CD33 [7] it was 5.1 nM; in the test with human CD3 [8] it was 97.2 nM. For the same molecule, in the test with cynomolgus CD33, the “KD ratio cynoCD33/huCD33” value amounted to 1.9.

Source of the values: patent publication US20200262920A1 (AMPHIVENA THERAPEUTICS, published 2020).
